Data as given in US20260365708 (published 2026).
Changes are numbered by the printed parent chain. In names and notes the source's numbering stands.

T1: mIL10RalphaFc (mouse, UniProt Q61727)
T1 chain: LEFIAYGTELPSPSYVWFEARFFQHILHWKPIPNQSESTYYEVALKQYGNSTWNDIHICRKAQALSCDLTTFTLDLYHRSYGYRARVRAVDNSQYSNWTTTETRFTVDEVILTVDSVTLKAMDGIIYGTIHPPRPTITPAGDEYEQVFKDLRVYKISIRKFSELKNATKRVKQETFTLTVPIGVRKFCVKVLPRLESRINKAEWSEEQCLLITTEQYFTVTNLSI

T2: hIL10RalphaFc (human, UniProt Q13651)
T2 chain: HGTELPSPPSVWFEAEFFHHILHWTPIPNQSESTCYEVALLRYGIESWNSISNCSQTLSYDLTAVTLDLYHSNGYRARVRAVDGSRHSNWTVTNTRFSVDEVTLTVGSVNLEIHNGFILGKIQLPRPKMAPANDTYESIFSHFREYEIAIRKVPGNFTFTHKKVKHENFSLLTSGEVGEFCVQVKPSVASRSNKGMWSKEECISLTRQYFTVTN

B1: mIL10 WT (protein)
chain: SRGQYSREDNNCTHFPVGQSHMLLELRTAFSQVKTFFQTKDQLDNILLTDSLMQDFKGYLGCQALSEMIQFYLVEVMPQAEKHGPEIKEHLNSLGEKLKTLRMRLRRCHRFLPCENKSKAVEQVKSDFNKLQDQGVYKAMNEFDIFINCIEAYMMIKMKS
B2: mIL10 T100L (protein)
chain: B1 chain with T100L
B3: WC163_AA (mIL10 WT fused) (protein)
chain: GNCTHFPVGQSHMLLELRTAFSQVKTFFQTKDQLDNILLTDSLMQDFKGYLGCQALSEMIQFYLVEVMPQAEKHGPEIKEHLNSLGEKLKTLRMRLRRCHRFLPCENKSKAVEQVKSDFNKLQDQGVYKAMNEFDIFINCIEAYMMIKMKSSRGQYSREDNQYSREDNSCTHFPVGQSHMLLELRTAFSQVKTFFQTKDQLDNILLTDSLMQDFKGYLGCQALSEMIQFYLVEVMPQAEKHGPEIKEHLNSLGEKLKTLRMRLRRCHRFLPCENKSKAVEQVKSDFNKLQDQGVYKAMNEFDIFINCIEAYMMIKMKS
B4: SS0051_AA (mIL10 T100L fused) (protein)
chain: B3 chain with T91L, T258L
B5: h_SS0053_AA (hIL10 T100L fused) (protein)
chain: SPGQGTQSENSCTHFPGNLPNMLRDLRDAFSRVKTFFQMKDQLDNLLLKESLLEDFKGYLGCQALSEMIQFYLEEVMPQAENQDPDIKAHVNSLGENLKLLRLRLRRCHRFLPCENKSKAVEQVKNAFNKLQEKGIYKAMSEFDIFINYIEAYMTMKIRNSPGQGTQSENSCTHFPGNLPNMLRDLRDAFSRVKTFFQMKDQLDNLLLKESLLEDFKGYLGCQALSEMIQFYLEEVMPQAENQDPDIKAHVNSLGENLKLLRLRLRRCHRFLPCENKSKAVEQVKNAFNKLQEKGIYKAMSEFDIFINYIEAYMTMKIRNGGSHHHHHHHH
B6: hIL10 T100L (protein)
chain: SPGQGTQSENSCTHFPGNLPNMLRDLRDAFSRVKTFFQMKDQLDNLLLKESLLEDFKGYLGCQALSEMIQFYLEEVMPQAENQDPDIKAHVNSLGENLKLLRLRLRRCHRFLPCENKSKAVEQVKNAFNKLQEKGIYKAMSEFDIFINYIEAYMTMKIRN
B7: hIL10 WT (protein)
chain: B6 chain with L100T
B8: h_SS0052_AA (hIL10 WT fused) (protein)
chain: SPGQGTQSENSCTHFPGNLPNMLRDLRDAFSRVKTFFQMKDQLDNLLLKESLLEDFKGYLGCQALSEMIQFYLEEVMPQAENQDPDIKAHVNSLGENLKTLRLRLRRCHRFLPCENKSKAVEQVKNAFNKLQEKGIYKAMSEFDIFINYIEAYMTMKIRNSPGQGTQSENSCTHFPGNLPNMLRDLRDAFSRVKTFFQMKDQLDNLLLKESLLEDFKGYLGCQALSEMIQFYLEEVMPQAENQDPDIKAHVNSLGENLKTLRLRLRRCHRFLPCENKSKAVEQVKNAFNKLQEKGIYKAMSEFDIFINYIEAYMTMKIRN

Biological target: T1, mIL10RalphaFc
Experiment: SPR

Row | Kd [nM] | Binder
1 | 0.81 | B1
2 | 1.92 | B2
3 | 0.86 | B3
4 | 0.73 | B4

Biological target: T2, hIL10RalphaFc
Experiment: SPR

Row | Kd [nM] | Binder
5 | 0.07 | B5
6 | 0.26 | B6
7 | 0.06 | B7
8 | 0.11 | B8
